Results on two molecules are retold here after US20170355769A1 (AbbVie / Abbott, published 2017).

Like-named read-outs stand apart in the source and are kept apart here.

In test [1] the target is T1, Human full length B7-H3 (human, UniProt Q5ZPR3 29-534).
T1 construct: On 3T12 fibroblasts expressing full length human B7-H3 or on NCI-H1650 cells; signal peptide residues 1-28 stated; also called huB7-H3; CD276
T1 sequence: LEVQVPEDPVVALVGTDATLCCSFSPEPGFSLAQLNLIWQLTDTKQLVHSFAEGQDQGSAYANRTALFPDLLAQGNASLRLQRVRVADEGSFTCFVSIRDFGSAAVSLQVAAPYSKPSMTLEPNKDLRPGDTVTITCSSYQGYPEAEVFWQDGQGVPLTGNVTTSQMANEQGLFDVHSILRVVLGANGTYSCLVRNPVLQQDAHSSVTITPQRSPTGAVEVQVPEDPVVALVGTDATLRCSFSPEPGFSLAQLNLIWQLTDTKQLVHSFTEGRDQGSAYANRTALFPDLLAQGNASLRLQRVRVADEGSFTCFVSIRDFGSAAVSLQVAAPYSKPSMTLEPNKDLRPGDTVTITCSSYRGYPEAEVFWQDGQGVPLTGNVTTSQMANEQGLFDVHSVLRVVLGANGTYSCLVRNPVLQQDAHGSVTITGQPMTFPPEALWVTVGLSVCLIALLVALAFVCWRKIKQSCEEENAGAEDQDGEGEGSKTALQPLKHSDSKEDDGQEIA
The test is described as follows: FACS, NCI-H1650 cells. In general terms: In flow cytometry, cells or beads pass a laser one at a time.

In test [2] the target is T2, Human B7-H3-ECD (His tag) (human, UniProt Q5ZPR3 29-461).
T2 construct: SPR analyte; also called huB7-H3; soluble ECD of human B7-H3
T2 sequence: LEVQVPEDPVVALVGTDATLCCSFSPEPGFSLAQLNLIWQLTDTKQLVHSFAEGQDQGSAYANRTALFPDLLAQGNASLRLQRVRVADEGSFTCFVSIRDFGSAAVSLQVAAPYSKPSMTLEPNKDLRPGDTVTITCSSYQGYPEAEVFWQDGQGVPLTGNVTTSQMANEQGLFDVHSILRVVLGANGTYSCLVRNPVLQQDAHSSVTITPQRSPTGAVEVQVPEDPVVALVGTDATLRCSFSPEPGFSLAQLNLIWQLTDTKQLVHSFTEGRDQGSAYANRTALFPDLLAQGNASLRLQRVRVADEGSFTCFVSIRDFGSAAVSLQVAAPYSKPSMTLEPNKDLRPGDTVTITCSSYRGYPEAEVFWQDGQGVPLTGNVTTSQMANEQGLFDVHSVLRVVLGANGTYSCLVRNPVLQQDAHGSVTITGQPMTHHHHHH
Briefly: SPR Biacore, naked mAb. An excerpt: Biacore T200 SPR instruments were used to measure the binding kinetics of human B7-H3 (analyte) binding to various mAbs (ligands). The assay format was Fc-based capture via immobilized anti-mouse (Fc) (Pierce 31170) or immobilized anti-human (Fc) (Pierce 31125). A standard amine coupling protocol was employed to immobilize the capture reagents via primary amines to the carboxy-methyl (CM) dextran surface of CM5 sensorchips (Biacore); capture antibodies were coupled to a level of approximately 5000RU. For binding kinetic measurements the assay buffer was HBS-EP+ (Biacore): 10 mM Hepes, pH7.4, 150 mM NaCl, 3 mM EDTA, 0.05% polysorbate 20. During the assay, all measurements were referenced against the capture surface alone. Each assay cycle consisted of the following steps: 1) Capture of ligand to approximately 50RU; 2) Analyte injection over both reference and test surface, 240 μL at 80 μL/min, after which the dissociation was monitored for 900 seconds at 80 μL/min; 3) Regeneration of capture surface with low pH glycine. […] Data were processed and fit to a 1:1 binding model using Biacore T200 Evaluation Software to determine the binding kinetic rate constants, kₐ (on-rate) and kd (off-rate), and the equilibrium dissociation constant (affinity, KD). […]
On the technique in general: Surface plasmon resonance follows binding to a sensor surface in real time, without labels.

For test [3], the target named is T2, Human B7-H3-ECD (His tag). The test is described as follows: SPR Biacore, naked mAb. From the text:
(§1) Biacore T200 SPR instruments were used to measure the binding kinetics of human B7-H3 (analyte) binding to various mAbs (ligands). The assay format was Fc-based capture via immobilized anti-mouse (Fc) (Pierce 31170) or immobilized anti-human (Fc) (Pierce 31125). A standard amine coupling protocol was employed to immobilize the capture reagents via primary amines to the carboxy-methyl (CM) dextran surface of CM5 sensorchips (Biacore); capture antibodies were coupled to a level of approximately 5000RU. For binding kinetic measurements the assay buffer was HBS-EP+ (Biacore): 10 mM Hepes, pH7.4, 150 mM NaCl, 3 mM EDTA, 0.05% polysorbate 20. During the assay, all measurements were referenced against the capture surface alone. Each assay cycle consisted of the following steps: 1) Capture of ligand to approximately 50RU; 2) Analyte injection over both reference and test surface, 240 μL at 80 μL/min, after which the dissociation was monitored for 900 seconds at 80 μL/min; 3) Regeneration of capture surface with low pH glycine. […] Data were processed and fit to a 1:1 binding model using Biacore T200 Evaluation Software to determine the binding kinetic rate constants, kₐ (on-rate) and kd (off-rate), and the equilibrium dissociation constant (affinity, KD).
These variants were further characterized for binding by SPR and as ADCs conjugated to the Bcl-xL inhibitor synthon (linker warhead) CZ. […] An ADC comprising chAb3 conjugated to synthon CZ was used as a control.
This is another data set of the same source.

Test [4] concerns the target T2, Human B7-H3-ECD (His tag). The test is described as follows: SPR Biacore, naked mAb.
Excerpt: as §1
This is another data set of the same source.

B1: chAb13 (antibody, IgG1, V domains shown)
VH: DVQLQESGPDLVKPSQSLSLTCTVTGYSITSGYSWHWIRQFPGNKLEWMGYIHSSGSTNYNPSLKSRISINRDTSKNQFFLQLNSVTTEDTATYYCAGYDDYFEYWGQGTTLTVSS
VL: DIVMTQSQKFMSTSVGDRVSVTCKASQNVGFNVAWYQQKPGQSPKALIYSASYRYSGVPDRFTGSGSGTDFTLTISNVQSEDLAEYFCQQYNSYPFTFGSGTKLEIK
notes: chimeric, huIgG1/k
B1 yielded an EC50 in test [1] of 1.53 nM. The dissociation constant Kd in test [2] came to 5.7 nM.

B2: huAb3v2 (antibody, V domains shown)
VH: EVQLVQSGAEVKKPGSSVKVSCKASGYTFSSYWMHWVRQAPGQGLEWIGLIHPDSGSTNYNEMFKNRATLTVDRSTSTAYMELSSLRSEDTAVYYCAGGGRLYFDYWGQGTTVTVSS
VL: DIVMTQSPLSLPVTPGEPASISCRSSQSLVHSNGDTYLRWYLQKPGQSPQLLIYKVSNRFSGVPDRFSGSGSGTDFTLKISRVEAEDVGVYYCSQSTHVPYTFGGGTKVEIK
notes: humanized IgG
As to B2, the equilibrium dissociation constant (Kd) in test [3] turned out to be 0.69 nM; in test [4], 2.3 nM.

As usually defined, the EC50 is the concentration giving half of the maximal effect. Higher therefore signals lower potency in that assay. As a reminder, the Kd is the free concentration of one partner at which half of the binding sites on the other are occupied at equilibrium, for simple one-to-one binding.
